Data reported in US10208087B2, “Peptides” (Hoffmann-La Roche Inc., priority 2014, dated 2019).
Counter-ions that a name gives are not always drawn. Starred links: 1 amine or outer side, 2 acyl side, 3 side chain; linkers in the order of their positions; H or OH if unused. Non-standard residues stand in square brackets, D forms with d. Residues, ends and D or L forms follow the SMILES beside them. No end group written: not given here. *: point of attachment. Elaidic = elaidic acid acyl on Lys side chain, CCCCCCCC/C=C/CCCCCCCC(=O)*; MetSta(3S,4S) = CSCC[C@H](N[*:1])[C@@H](O)CC(=O)[*:2]; Palmitoleoyl = CCCCCC/C=C\CCCCCCCC(=O)*; Sta = CC(C)C[C@H](N)[C@@H](O)CC(=O)O; Palmitoyl = CCCCCCCCCCCCCCCC(=O)*; PEG4 = NCCOCCOCCOCCOCCC(=O)O; PEG3 = NCCOCCOCCOCCC(=O)O; Nle = CCCC[C@H](N)C(=O)O; Palm = palmityl

Assays:
BACE1 [1] = target: T1, BACE1 (Homo sapiens, UniProt P56817); assay: Cellular Aβ-lowering Assay; assay type: cell-based; conditions: Aβ40 in culture supernatant (ELISA) of human HEK293 cells stably expressing human APP wt (APP695); 18-20 hrs incubation
T1 construct: Human HEK293 cells which are stably transfected with a vector expressing a cDNA of the human APP wt gene (APP695); endogenous in cells; host or cells: HEK293 cells stably transfected with human APP695 wt
T1 sequence (P56817 46-501): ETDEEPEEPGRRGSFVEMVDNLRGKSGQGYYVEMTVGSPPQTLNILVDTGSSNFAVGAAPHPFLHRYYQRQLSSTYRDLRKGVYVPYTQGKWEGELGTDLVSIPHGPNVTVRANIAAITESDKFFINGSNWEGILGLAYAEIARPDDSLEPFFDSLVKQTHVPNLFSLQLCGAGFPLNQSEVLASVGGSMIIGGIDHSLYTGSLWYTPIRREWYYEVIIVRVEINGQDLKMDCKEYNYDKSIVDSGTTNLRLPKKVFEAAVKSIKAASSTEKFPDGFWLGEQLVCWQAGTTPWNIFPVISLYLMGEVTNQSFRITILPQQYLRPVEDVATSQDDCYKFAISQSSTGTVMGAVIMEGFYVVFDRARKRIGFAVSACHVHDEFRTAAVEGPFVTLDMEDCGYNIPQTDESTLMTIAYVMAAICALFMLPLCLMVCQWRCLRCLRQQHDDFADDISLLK
Experimental: The compounds were investigated in accordance with the test given hereinafter. Cellular Aβ-lowering Assay: Human HEK293 cells which are stably transfected with a vector expressing a cDNA of the human APP wt gene (APP695) were used to assess the potency of the compounds in a cellular assay. […] After blocking of non-specific binding sites with e.g. 1% BSA and washing, the culture supernatants were added in suitable dilutions together with a horseradish peroxidase-coupled Aβ detection antibody (e.g., antibody 4G8, Senetek, Maryland Heights, Mo.) and incubated for 5 to 7 hrs. Subsequently the wells of the microtiter plate were washed extensively with Tris-buffered saline containing 0.05% Tween 20 and the assay was developed with tetramethylbenzidine/H2O2 in citric acid buffer. After stopping the reaction with one volume 1 N H2SO4 the reaction was measured in an ELISA reader at 450 nm wavelength. The concentrations of Aβ in the culture supernatants were calculated from a standard curve obtained with known amounts of pure Aβ peptide.

BACE1 [2] = target: BACE1 (UniProt P56817 46-501, limits assumed); assay: cell-based or functional assay
BACE1 (UniProt P56817 46-501, limits assumed), sequence (P56817 46-501 limits assumed): as the sequence (P56817 46-501) above

Row | Molecule | IC50 (BACE1 [1]) [nM] | IC50, cellular Aβ-lowering assay (Aβ40 in supernatant of HEK293 cells expressing human APP695) (BACE1 [2]) [nM]
1 | CCCCCCCCCCCCCCCC(=O)NCCCC[C@H](NC(=O)[C@H](Cc1ccccc1)NC(=O)[C@H](CCC(=O)O)NC(=O)[C@H](C)NC(=O)[C@@H](NC(=O)C[C@H](O)[C@H](CC(C)C)NC(=O)[C@H](CC(N)=O)NC(=O)[C@@H](NC(=O)[C@H](CCC(=O)O)NC(=O)CNC(=O)[C@H](CCCC)NC(=O)CNC(=O)[C@H](CC(C)C)NC(=O)[C@@H]1CCCN1C(=O)[C@@H](NC(=O)[C@H](Cc1ccccc1)NC(=O)[C@H](Cc1ccc(O)cc1)NC(=O)[C@@H]1CCCN1C(=O)[C@@H](N)Cc1ccc(O)cc1)[C@@H](C)CC)C(C)C)C(C)C)C(N)=O [Example 6, Tyr-Pro-Tyr-Phe-Ile-Pro-Leu-Gly-Nle-Gly-Glu-Val-Asn-Sta-Val-Ala-Glu-Phe-Lys(Palmityl)-NH2 x TFA] | 120 | –
2 | CCCCCCCCCCCCCCCC(=O)NCCCC[C@H](NC(=O)[C@@H](Cc1ccccc1)NC(=O)[C@H](CCC(=O)O)NC(=O)[C@H](C)NC(=O)[C@@H](NC(=O)C[C@H](O)[C@H](CCSC)NC(=O)[C@H](CC(N)=O)NC(=O)[C@@H](NC(=O)[C@H](CCC(=O)O)NC(=O)CCOCCOCCOCCNC(=O)[C@H](CC(C)C)NC(=O)[C@@H]1CCCN1C(=O)[C@@H](NC(=O)[C@H](Cc1ccccc1)NC(=O)[C@H](Cc1ccc(O)cc1)NC(=O)[C@@H]1CCCN1C(=O)[C@@H](N)Cc1ccc(O)cc1)[C@@H](C)CC)C(C)C)C(C)C)C(N)=O [Example 33, Tyr-Pro-Tyr-Phe-Ile-Pro-Leu-(PEG)3-Glu-Val-Asn-MetSta-Val-Ala-Glu-DPhe-Lys(Palm)-NH2 x TFA] (H-YPYFIPL[PEG3]EVN[MetSta(3S,4S)]VAE[dF]K(Palmitoyl)-NH2; N-terminus assumed) | 41 | –
3 | YPYFIPLAGGEVN[Sta]VAEFK(Palm)-NH2 (also: TFA salt) [YPYFIPL-AGG-EVN-Sta-VAEFK(Palm)-NH2 x TFA] | – | 53
4 | YPKFIPLG[dK]GEVN[Sta]VAE[dP]K(Oleic)-NH2 (also: 3TFA salt) [YPKFIPL-GkG-EVN-Sta-VAEp-K(Oleic)-NH2 x 3TFA] | – | 6.02
5 | YPKFIPLG[dK]GEVN[Sta]VAE[dP]K(Vaccenic)-NH2 (also: 3TFA salt) [YPKFIPL-GkG-EVN-Sta-VAEp-K(Vaccenic)-NH2 x 3TFA] | – | 2.68
6 | YPYFIPLGPGEVN[Sta]VAEFK(Palm)-NH2 (also: TFA salt) [YPYFIPL-GPG-EVN-Sta-VAEFK(Palm)-NH2 x TFA] | – | 140
7 | YPKFIPLG[dK]GEVN[Sta]VAE[dP]K(Myristoleic)-NH2 (also: 3TFA salt) [YPKFIPL-GkG-EVN-Sta-VAEp-K(Myristoleic)-NH2 x 3TFA] | – | 208
8 | YPKFIPLG[dK]GEVN[Sta]VAE[dP]K(Erucic)-NH2 (also: 3TFA salt) [YPKFIPL-GkG-EVN-Sta-VAEp-K(Erucic)-NH2 x 3TFA] | – | 1.15
9 | YPYFIPLGGGEVN[Sta]VAEFK(Palm)-NH2 (also: TFA salt) [YPYFIPL-GGG-EVN-Sta-VAEFK(Palm)-NH2 x TFA] | – | 120
10 | YPYFIPLG[dA][dK]EVN[Sta]VAEFK(Palm)-NH2 (also: TFA salt) [YPYFIPL-Gak-EVN-Sta-VAEFK(Palm)-NH2 x TFA] | – | 98

The remaining lines, values ahead:

Row | IC50 (BACE1 [1]) [nM] | IC50, cellular Aβ-lowering assay (Aβ40 in supernatant of HEK293 cells expressing human APP695) (BACE1 [2]) [nM] | Molecule
11 | 41 | – | CCCCCCCCCCCCCCCC(=O)NCCCC[C@H](NC(=O)[C@H](Cc1ccccc1)NC(=O)[C@H](CCC(=O)O)NC(=O)[C@H](C)NC(=O)[C@@H](NC(=O)C[C@H](O)[C@H](CC(C)C)NC(=O)[C@H](CC(N)=O)NC(=O)[C@@H](NC(=O)[C@H](CCC(=O)O)NC(=O)CNC(=O)[C@H](CO)NC(=O)CNC(=O)[C@H](CC(C)C)NC(=O)[C@@H]1CCCN1C(=O)[C@@H](NC(=O)[C@H](Cc1ccccc1)NC(=O)[C@H](Cc1ccc(O)cc1)NC(=O)[C@@H]1CCCN1C(=O)[C@@H](N)Cc1ccc(O)cc1)[C@@H](C)CC)C(C)C)C(C)C)C(N)=O [Example 9, Tyr-Pro-Tyr-Phe-Ile-Pro-Leu-Gly-Ser-Gly-Glu-Val-Asn-Sta-Val-Ala-Glu-Phe-Lys(Palmityl)-NH2 x TFA] (H-YPYFIPLGSGEVN[Sta]VAEFK(Palmitoyl)-NH2; N-terminus assumed)
12 | – | 41 | YPYFIPLGSGEVN[Sta]VAEFK(Palm)-NH2 (also: TFA salt) [YPYFIPL-GSG-EVN-Sta-VAEFK(Palm)-NH2 x TFA]
13 | – | 120 | YPYFIPLG[Nle]GEVN[Sta]VAEFK(Palm)-NH2 (also: TFA salt) [YPYFIPL-G-Nle-G-EVN-Sta-VAEFK(Palm)-NH2 x TFA]
14 | – | 19.9 | YPKFIPLG[dK]GEVN[Sta]VAE[dP]K(Palmitoleoyl)-NH2 (also: 3TFA salt) [YPKFIPL-GkG-EVN-Sta-VAEp-K(Palmitoleic)-NH2 x 3TFA]
15 | – | 41 | YPYFIPL[PEG3]EVN[MetSta(3S,4S)]VAE[dF]K(Palm)-NH2 (also: TFA salt) [YPYFIPL-PEG(3)-EVN-MetSta-VAE-DPhe-K(Palm)-NH2 x TFA]
16 | – | 64 | YPYFIPLG[dK]GEVN[Sta]VAEFK(Palm)-NH2 (also: TFA salt) [YPYFIPL-GkG-EVN-Sta-VAEFK(Palm)-NH2 x TFA]
17 | – | 53 | YPYFIPLGGSEVN[Sta]VAEFK(Palm)-NH2 (also: TFA salt) [YPYFIPL-GGS-EVN-Sta-VAEFK(Palm)-NH2 x TFA]
18 | – | 18 | YPYFIPL[PEG4]EVN[MetSta(3S,4S)]VAE[dF]K(Palm)-NH2 (also: TFA salt) [YPYFIPL-PEG(4)-EVN-MetSta-VAE-DPhe-K(Palm)-NH2 x TFA]
19 | – | 1.37 | YPKFIPLG[dK]GEVN[Sta]VAE[dP]K(Palm)-NH2 (also: 3TFA salt) [YPKFIPL-GkG-EVN-Sta-VAEp-K(Palm)-NH2 x 3TFA]
20 | – | 3.02 | YPKFIPLG[dK]GEVN[Sta]VAE[dP]K(Elaidic)-NH2 (also: 3TFA salt) [YPKFIPL-GkG-EVN-Sta-VAEp-K(Elaidic)-NH2 x 3TFA]
21 | – | 48 | YPYFIPLG[dP]GEVN[Sta]VAEFK(Palm)-NH2 (also: TFA salt) [YPYFIPL-GpG-EVN-Sta-VAEFK(Palm)-NH2 x TFA]
